Test results: publication PMC9513909, “Genomic distribution and context dependent functionality of novel WRKY transcription factor binding sites”

Key:
[1] = molecular target: T1, WRKY50BD (Arabidopsis thaliana, UniProt Q8VWQ5 86-173); assay: competition; 4000-fold excess against labelled S2; EMSA with 3' biotin-labelled probes (LightShift kit detection); buffer, salt, pH and temperature not given (earlier protocols cited); conditions: protein: recombinant; label: unlabelled
[2] = molecular target: T2, WRKY70 (Arabidopsis thaliana, UniProt Q9LY00 1-294); assay: as above; conditions: protein: recombinant; label: unlabelled
T2 sequence: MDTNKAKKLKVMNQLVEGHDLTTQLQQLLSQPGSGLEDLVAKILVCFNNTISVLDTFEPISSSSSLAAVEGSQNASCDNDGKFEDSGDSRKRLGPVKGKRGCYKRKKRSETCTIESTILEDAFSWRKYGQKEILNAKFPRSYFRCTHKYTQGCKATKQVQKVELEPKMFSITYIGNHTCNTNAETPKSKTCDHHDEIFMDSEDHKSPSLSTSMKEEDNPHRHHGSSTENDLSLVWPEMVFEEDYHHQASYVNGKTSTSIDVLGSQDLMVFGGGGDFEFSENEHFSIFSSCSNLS

[3] = molecular target: T1, WRKY50BD; assay: EMSA; shift abolished or strongly reduced by 4000-fold unlabelled S2; EMSA with 3' biotin-labelled probes (LightShift kit detection); buffer, salt, pH and temperature not given (earlier protocols cited); conditions: protein: recombinant; label: 3' biotin (probe)
[4] = molecular target: T2, WRKY70; assay: as above; conditions: protein: recombinant; label: 3' biotin (probe)
[5] = molecular target: T2, WRKY70; assay: EMSA; EMSA with 3' biotin-labelled probes (LightShift kit detection); buffer, salt, pH and temperature not given (earlier protocols cited); conditions: protein: recombinant; label: 3' biotin (probe)
[6] = molecular target: T1, WRKY50BD; assay: EMSA; shift abolished or strongly reduced by 4000-fold unlabelled S1; EMSA with 3' biotin-labelled probes (LightShift kit detection); buffer, salt, pH and temperature not given (earlier protocols cited); conditions: protein: recombinant; label: 3' biotin (probe)
[7] = molecular target: T1, WRKY50BD; assay: competition; 4000-fold excess against labelled S1; EMSA with 3' biotin-labelled probes (LightShift kit detection); buffer, salt, pH and temperature not given (earlier protocols cited); conditions: protein: recombinant; label: unlabelled

T1 sequence (Q8VWQ5 86-173): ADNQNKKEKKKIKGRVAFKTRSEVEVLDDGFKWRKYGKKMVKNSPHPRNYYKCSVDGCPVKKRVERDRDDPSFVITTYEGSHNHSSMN

B1: S2mut1 (dsDNA)
DNA 1: ATCGTCTAAGAGACAGTCCCTCTCGTAACTTTAT
DNA 2: ATAAAGTTACGAGAGGGACTGTCTCTTAGACGAT
binding result [1]: no binding
binding result [2]: no binding

B2: S2 (dsDNA)
DNA 1: ATCGTCTAAGAGACGACTTTTCTCGTAACTTTAT
DNA 2: ATAAAGTTACGAGAAAAGTCGTCTCTTAGACGAT
binding result [3]: binds
binding result [4]: binds

B3: S1 (dsDNA)
DNA 1: CACATTTACATTGCGACTTTTCTTGCATGCCGTC
DNA 2: GACGGCATGCAAGAAAAGTCGCAATGTAAATGTG
binding result [5]: no binding
binding result [6]: binds

B4: S1mut1 (dsDNA)
DNA 1: CACATTTACATTGCAGTCCCTCTTGCATGCCGTC
DNA 2: GACGGCATGCAAGAGGGACTGCAATGTAAATGTG
binding result [7]: no binding
